Assay results: the RNAGym collection of RNA variant scans (doi:10.1073/pnas.2313332121)

B1: TPR t1 (parent)
chain: GACCAAUCUGCCCUCAGAGCUCGAGAACAUCUUCGGAUGCAGAGGAGGCAGGCUUCGGUGGCGCGAUAGCGCCAACGUCCUCAACCUCCAAUGCAUCCCACCACAUGAUGAUGCCUGAAGAGCCUUGGUUUUUUG

Variants of: B1
Assay: polymerase ribozyme fitness, log enrichment relative to wild type (log ratio); higher = more active; in vitro selection for triplet polymerase activity
In short: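 In triplicate, a single round of in vitro selection was run on each mutant library, PCR-built and transcribed, covering one subunit of a heterodimeric triplet polymerase ribozyme. Frozen incubation at −7 °C followed annealing with a biotinylated primer, partner subunit and triplets, and extended constructs were then gel-excised, streptavidin-captured and taken through RT-PCR. Fitness is the logarithm of genotype enrichment over wild-type enrichment, from inverse-variance-weighted replicate averages of Illumina-sequenced inputs and outputs. […] only genotypes with ≥10 input reads and ≥1 read per output were kept.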

Row | Variant | polymerase ribozyme fitness (log ratio)
1 | U21C C22G G63A G77U C94A G110C U112C | -7.86
2 | C22G G61A C62U C104U G120A | -4.48
3 | U21A U38G C56A | -1.66
4 | U21A C97G | -4.44
5 | C22A C70G A111C G113C | -6.22
6 | U21A G42C U59C U130G | -2.41
7 | U21A G47C | -1.67
8 | C22G G23A C97U G120C | -3
9 | U21A A41U A90G | -0.995
10 | U21A U54C G61A A111G C123U | -5.38
11 | U21A G61C C114A | -2.8
12 | U21A G69U | 0.577
13 | C22A G60A U96A U130C | -4.99
14 | U21C C56U | 0.0213
15 | C22G C114U | -3.43
16 | C22G C114A | -3.01
17 | U21G G39A | -1.39
18 | C22A G61U C102A G122A | -5.53
19 | C22A C40U C73U U112A U129C | -4.96
20 | U21A A24G | -1.64
21 | C22G C72G U81A | -4.32
22 | U21C C49A A84U C88G C101G U133A | -2
23 | C22G G45A U54A A95C C114U | -5.19
24 | C22A A27C C124A | -4.12

Row | Variant | polymerase ribozyme fitness (log ratio)
25 | C22G A27C C56G G120C | -4.73
26 | C22A C34U G36U G61C A111U | -6.58
27 | U21G C72A A121U | 0.876
28 | U21G G36A U54A G63U C82A C123A | -3.52
29 | C22A C31G C62U C94A G110C | -6.66
30 | U21C G63A C82A C124G U133G | -0.991
31 | U21A G77A | 0.00839
32 | U21A C80U | -0.894
33 | U21A A90C | -1.58
34 | U21A C72U | -2.3
35 | U21A C72G | -0.599
36 | C22A C64U C114G G135U | -5.66
37 | C22A C28U | -4.42
38 | C22G G36A C101U | -5.03
39 | U21A A50U G61U U130A | -1.97
40 | C22G A75U C101U C123A G128C | -6.24
41 | U21A G60U A83U U126C | -0.934
42 | C22G A37U C88U | -4.47
43 | U21C A46G C53A C98U | -3.28
44 | U21A C89G | -2.25
45 | U21A A50G A95G A105C | -3.34
46 | C22G A43U A46G U59A G120C | -4.94
47 | C22A C64U | -4.37
48 | C22A A27G G60C A83G | -6.08

Row | Variant | polymerase ribozyme fitness (log ratio)
49 | C22G C53U C70A G120A G128U | -4.71
50 | U21G C123G U126G | 0.0716
51 | U21C A37G A46C C64G A100C C115U G117C | -7.24
52 | C22A C40U C49A C72U C123G | -5.79
53 | U21C A95G | -0.566
54 | C22A C56A U112C | -2.01
55 | U21A U81A | -1.49
56 | U21G G93A C114G | -4.94
57 | U21G C40U G47U G63U C98A G120C | -7.2
58 | C22G C53G C123G | -2.61
59 | C22A G44C U112A | -3.24
60 | U21A C28A G71A C79U U81A G110C | -6.99
61 | C22G G23C A24C C89A C123A | -6.86
62 | U21G C64U | -2.06
63 | C22A A46C U131A | -4.88
64 | U21A G42U G60C | -2.45
65 | C22A A111C | -4.49
66 | U21A U38G U54C U59A | -1.06
67 | C22G C86A | -3.83
68 | C22G C56A C79A | -4.99
69 | U21C A26G | -2.38
70 | C22A G25C G45C G48U U59A C115U | -6.59
71 | U21C G42A G52U C124A U125A | -1.88
72 | U21A G23A C76G G113U | -7.66

Row | Variant | polymerase ribozyme fitness (log ratio)
73 | C22G | -2.97
74 | C22A | -4.89
75 | C22A A37G U81A A121C | -6.04
76 | U21A C49U G63U | -3.27
77 | C22G A29C C89A G120C | -6.79
78 | U21G G61C | -3.98
79 | C22A A29G C40A G63U A74U G93A G113C G120U | -7.43
80 | U21A A26G C73U G77A | -2.54
81 | C22A G110U | -5.03
82 | C22A G61U C115U G128C U131A U134C | -5.61
83 | U21G A95C | -2.54
84 | U21C A29G A37U G71U | -1.56
85 | U21A U116G G122U C124G U126A | -1.21
86 | C22A G61A U129G | -5.57
87 | C22A U54C | -4.71
88 | C22G C34G C70A C123A | -6.39
89 | U21A A43C G63C | -4.13
90 | U21A G44A G113C | -3.04
91 | U21A C56U G57C | -0.599
92 | U21C A24G A26G C53G G60U | -5.16
93 | C22A G23A G35A C82G C89U C104U A111U | -6.73
94 | C22G G44U U109G G110C | -5.8
95 | U21G G52A C102A C124U | -2.14
96 | U21C C70U A111C | -0.344

Row | Variant | polymerase ribozyme fitness (log ratio)
97 | U21A G61C U112A U133C | -0.24
98 | C22G G61C | -3.76
99 | C22G G61U | -2.12
100 | C22A C72U | -4.98
101 | C22A C72G | -4.59
102 | U21G C22A A27U A95U C123A | -5.39
103 | U21G U55G U112A | 1.42
104 | C22G A46G G60A G120A | -4.49
105 | U21C G45A U59A G61A | -1.1
106 | U21C G57U | -0.235
107 | U21G G47A | -0.934
108 | U21G A105U G120A | -2.92
109 | U21A A29G A43U C56G A83C A91C G120U | -5.54
110 | U21A G61A C88A G110A | -4.74
111 | U21G A37G G61A G135U | -2.33
112 | U21G C40G | -0.951
113 | C22G G39U | -3.5
114 | U21G G47C C85G G93C A100U C101U | -5.69
115 | U21A C89U G110A U112C | -2.24
116 | C22G C40A G69C G113A | -5.15
117 | C22A G60C U87A | -5.83
118 | U21A C49U | -1.1
119 | U21A U38G C56A U78C | -1.08
120 | C22G A41U C88G U116G A121G | -4.87

Row | Variant | polymerase ribozyme fitness (log ratio)
121 | C22G C56A C64U C80G C101G U130A | -5.63
122 | U21C U78A A91U | -1.45
123 | U21C C34A C49U U78C G120A | -2.92
124 | C22G A43U C72G U106A C115A | -1.97
125 | U21A G60A C86U | -1.23
126 | C22G A29U G120U U133A | -5.17
127 | U21C G48U U112C A118U | 1.11
128 | U21A G51A G57U | -2.59
129 | C22G A75U | -3.6
130 | U21A G45U G63A G113C | -6.02
131 | C22A C115A | -4.55
132 | C22A C115G | -3.77
133 | C22A C115U | -6.25
134 | C22G A46C | -3.97
135 | C22A C79U U87A | -4.8
136 | C22G A83U C89G A121G | -3.33
137 | C22G C62G | -4.53
138 | C22G C62A | -3.99
139 | U21A A95G G117U | -1.3
140 | U21A C104U G117A G120U | -3.67
141 | U21C G42A | -1.45
142 | U21A U54C G93C | -1.26
143 | C22A C82G U112G | -5.26
144 | C22A C53U C64U C124U | -3.7

Row | Variant | polymerase ribozyme fitness (log ratio)
145 | U21C C88G A121U | -0.0258
146 | U21C G71U | -0.75
147 | U21C G71A C101U G117A | -2.85
148 | U21A G42U G63C C82A | -3.34
149 | C22G A50U C56U C76U C88G C124G | -5.33
150 | U21G C73A C94A | -2.37
151 | C22G C79A C94U G110U A119G U133A | -3.44
152 | C22G C49G A84U C86U | -4.89
153 | C22G A46G C82A A121G G135U | -2.94
154 | U21G G39C A41G C115A | -2
155 | C22A G42A C73A | -7.34
156 | U21C A121C | 1.32
157 | U21C C62U A83U U87G | 0.103
158 | U21G C72U A75U | -1.05
159 | U21G G48U U59C A74U C114A | -2.3
160 | U21A A27U U92A | -7.38
161 | U21A A43U | -1.83
162 | U21C G71A G93A | -1.91
163 | U21G U87G U133G | -3.13
164 | C22G C82A A83U G93C | -4.04
165 | C22G A37U U87G | -3.6
166 | C22G G60C C104A A121U | -2.34
167 | C22A C123A U125G | -4.58
